Experimental data: patent CN113234143A

Target: HBV表面抗原蛋白 (HBsAg) (Hepatitis B virus)
Assay: SPR, Biacore 3000; 7E5 captured by AHC on a CM5 chip, HBsAg as analyte in 2-fold dilutions from 40 nM to 0 nM

B1: 抗HBsAg单克隆抗体7E5 (antibody, V domains shown)
VH: EVQLQQSGPELVKPGASVKMSCKASGYTFTARGYNWVRQSHGKSLEWIGGINCRPTAMSPEDLVKDKATLTVDKSSNTVYMEFRSLTLEDSAIYFCARRECPINQGDYWGQGTIFTVSS
VL: EIVLTQSPALMAASPGEKVTITCGCARNTIWNNVGWYQQKSETSPKPWIYWASLFGKGVPVRFSGSGSGTSYSLTISSMEAEDAATYYCQDIQENWTPFGAGTKLELK
B1 showed a Kd of 21.5 nM, a koff of 0.000445 s⁻¹ and a kon of 20700 M⁻¹ s⁻¹.
